Measured values taken from patent US20170189504A1.

Target: HLA-A*24 (human)
Experiment: UV-ligand exchange, anti-b2m ELISA

Binder | peptide exchange yield [%]
TYKDEGNDYF [SEQ ID NO: 209 peptide …] | 50 to 75
LYITEPKTI [SEQ ID NO: 287 peptide …] | 50 to 75
PYRLIFEKF [SEQ ID NO: 281 peptide …] | 20 to 49
HYPPVQVLF [SEQ ID NO: 285 peptide …] | 50 to 75
VYWDSAGAAHF [SEQ ID NO: 202 peptide …] | > 75
RYAEEVGIF [SEQ ID NO: 199 peptide …] | 50 to 75
TFSVSSHLF [SEQ ID NO: 222 peptide …] | 50 to 75

More lines, now with the values ahead:

peptide exchange yield [%] | Binder
50 to 75 | QYLGQIQHI [SEQ ID NO: 268 peptide …]
> 75 | VYQGHTALL [SEQ ID NO: 277 peptide …]
> 75 | TYELRYFQI [SEQ ID NO: 204 peptide …]
50 to 75 | YYGPSLFLL [SEQ ID NO: 200 peptide …]
50 to 75 | YYKSTSSAF [SEQ ID NO: 218 peptide …]
50 to 75 | YFIDSTNLKTHF [SEQ ID NO: 269 peptide …]
50 to 75 | IYATEAHVF [SEQ ID NO: 201 peptide …]
50 to 75 | NYYEVHKELF [SEQ ID NO: 270 peptide …]
20 to 49 | AYVVFVSTL [SEQ ID NO: 207 peptide …]
